Here are results for nine molecules from US20050025768A1 (Biogen, published 2005).

B1: 11K2 (antibody, IgG1, V domains shown)
VH: EVQLQQSGAELVKAGASVKLSCPASGLNIKDTYMHWVKQRPEQGLEWIGRIDPANGNTKFDPKFQGKATITADTSSNTAYLQLSSLTSEDTAVYYCARGVFGFFDYWGQGTTLTVSS
VL: DIQMTQSSSSFSVSLGDRVTITCKATEDIYNRLAWYQQKPGSAPRLLISGATSLETGVPSRFSGSGSGKDYTLSITSLQTEDVATYYCQQFWSAPYTFGGGTKLEIK
notes: ATCC PTA-3987; also called 11K2.1; 11K2 mAb
B2: 4N4 (antibody, IgG1, V domains shown)
VH: B1 VH
VL: B1 VL
notes: IgG1; ATCC PTA-3994; also called 4N4.1
B3: 5A13 (antibody, IgG1, V domains shown)
VH: B1 VH
VL: B1 VL
notes: IgG1; ATCC PTA-3995; also called 5A13.1
B4: 7H1 (antibody, IgG1, V domains shown)
VH: B1 VH
VL: B1 VL
notes: IgG1; ATCC PTA-3985; also called 7H1.1
B5: 6I5 (antibody, IgG1, V domains shown)
VH: B1 VH
VL: B1 VL
notes: IgG1; ATCC PTA-3986; also called 615; 6I5.1
B6: 6D21 (antibody, IgG1, V domains shown)
VH: B1 VH
VL: B1 VL
notes: IgG1; ATCC PTA-3989; also called 6D21.1
B7: 1A1 (antibody, IgG1, V domains shown)
VH: EVQLQQSGAELVRSGASVKLSCTASGFNIKDNYMHWVKQRPEQGLEWIGWIDPENGDTEYAPKFQGKATMTADTSSNTAYLQLSSLTSEDTAVYYCNTWAYYGTSYGGFAYWGQGTTVTVSS
VL: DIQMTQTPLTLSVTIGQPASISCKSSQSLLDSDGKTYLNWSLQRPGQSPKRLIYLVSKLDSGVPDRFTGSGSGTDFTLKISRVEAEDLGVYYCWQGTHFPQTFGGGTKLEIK
notes: ATCC PTA-3990; also called 1A1.1; 1A1 mAb
B8: 1A1 Fab (Fab, V domains shown)
VH: B7 VH
VL: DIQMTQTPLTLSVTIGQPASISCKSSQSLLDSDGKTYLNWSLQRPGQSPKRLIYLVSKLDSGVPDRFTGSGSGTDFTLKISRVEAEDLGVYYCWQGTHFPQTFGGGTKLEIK
notes: Fab of the murine IgG1 mAb; also called Fab fragment of 1A1
B9: 11K2 Fab (Fab, V domains shown)
VH: B1 VH
VL: B1 VL
notes: Fab of the murine IgG1 mAb; also called Fab fragment of 11K2

One experiment has as its target T1, human MCP-4 (human, UniProt Q99616 24-98, limits assumed).
T1 construct: also called hMCP-4
Nature of the experiment: ELISA, purified mAb. How it is done: (§1) ELISA specificity assays were performed using purified monoclonal antibodies to confirm the binding specificities of the supernatant MCP-specific monoclonal antibodies described above. Antibodies were purified by Protein A affinity column chromatography, according to standard methods known in the art.
(§2) ELISA was performed as previously described in Example 1. Briefly, MaxiSorp 384 well plates were coated with 15-20 μl antigen in PBS. Recombinant purified human antigens included: MCP-1, MCP-2, MCP-3, MCP-4, IL-8, eotaxin, murine MCP-1 (JE), murine MCP-3, murine MCP-5, and rat MCP-1. All antigens, including MCP-3, were immobilized. Plates were washed and purified monoclonal antibody (10 μg/ml) was added to each well and incubated for 1 hour at room temperature. Plates were washed and wells were incubated with 20 μl/well of a 1:25,000 dilution of goat anti-mouse IgG peroxidase conjugate (Jackson Catalog Number 515-036-003). Plates were incubated for 1 hour at room temperature, washed, and 20 μl/well of substrate (TMB, tetramethylbenzidine, Jackson, Catalog Number 515-036-062) was added. Reaction was allowed to proceed and stopped by addition of 20 μl/well of 2M H₂SO₄. Antibodies 1A1 bound specifically to hMCP-1, hMCP-2, hMCP-3, and mMCP-1. Antibodies 11K2, 4N4, 5A 13, 6D21, 6I5, and 7H1 bound specifically to hMCP-1, hMCP-2, hMCP-3, mMCP-1, mMCP-3, and mMCP-5.
(In an ELISA, binding on a coated surface is turned into a signal by an enzyme label.)
For the molecule B1, the binding result is “no binding (tested: 10 ug/ml)”.

For the molecule B2, the binding result was “no binding (tested: 10 ug/ml)”.

As for B3, the binding result is reported as “no binding (tested: 10 ug/ml)”.

For B4, the binding result is “no binding (tested: 10 ug/ml)”.

In the case of B5, the binding result is on record as “no binding (tested: 10 ug/ml)”.

As to B6, the binding result is “no binding (tested: 10 ug/ml)”.

B7: the binding result is listed as “no binding (tested: 10 ug/ml)”.

Another experiment concerns the target T2, human IL-8 (human, UniProt P10145 28-99, limits assumed).
T2 construct: also called hIL8
Kind of experiment: ELISA, purified mAb. How it is done:
as §1, §2
As for B1, the binding result is “no binding (tested: 10 ug/ml)”.

Take B2: the binding result is given as “no binding (tested: 10 ug/ml)”.

B3: the binding result is on record as “no binding (tested: 10 ug/ml)”.

For the molecule B4, the binding result was “no binding (tested: 10 ug/ml)”.

B5: the binding result is listed as “no binding (tested: 10 ug/ml)”.

Turning to B6, the binding result is “no binding (tested: 10 ug/ml)”.

Turning to B7, the binding result was “no binding (tested: 10 ug/ml)”.

For another experiment, the target named is T3, human eotaxin (human, UniProt P51671 24-97).
T3 construct: also called hEotaxin
Nature of the experiment: ELISA, purified mAb. As for the experimental part:
as §1, §2
In the case of B1, the binding result is recorded as “no binding (tested: 10 ug/ml)”.

Take B2: the binding result was “no binding (tested: 10 ug/ml)”.

For the molecule B3, the binding result is listed as “no binding (tested: 10 ug/ml)”.

As for B4, the binding result is listed as “no binding (tested: 10 ug/ml)”.

As for B5, the binding result was “no binding (tested: 10 ug/ml)”.

As to B6, the binding result was “no binding (tested: 10 ug/ml)”.

On to B7, for which the binding result is “no binding (tested: 10 ug/ml)”.

The next experiment deals with T4, human MCP-2 (human, UniProt P80075 24-99).
T4 construct: also called hMCP-2; huMCP-2
T4 sequence (looked up): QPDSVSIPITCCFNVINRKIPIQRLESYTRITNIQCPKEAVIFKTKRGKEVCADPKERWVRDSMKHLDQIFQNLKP
Kind of experiment: KinExA kinetic exclusion assay, in solution; Fab (monovalent), not whole mAb. How it is done: (§3) Polymethylmethacrylate beads activated with NHS were coated with 10 μg recombinant human MCP-1 in 1 ml buffer. The beads were packed into a column in the KinExA instrument for each sample. This packed bead column is able to capture free MCP mAb or Fab flowed through the column. The amount of free mAb or Fab in solution was determined using a secondary goat anti-mouse heavy and light chain IgG-Cy5 conjugate.
(§4) A fixed amount of 11K2 mAb, 1A1 mAb, 11K2 Fab, or 1A1 Fab was incubated with various amounts of human MCP-1, MCP-2 or MCP-3 for three hours. The amount of uncomplexed free antibody remaining in solution was determined by flowing these mixtures over the MCP-1-loaded bead column and labeling with the Cy5 secondary antibody. The fluorescent signal was plotted against the MCP concentration and the affinity was determined using a quadratic curve fit
For orientation: Kinetic exclusion samples the free partner from a solution-phase mixture.
B8 showed a Kd of 0.32 nM.

Another experiment concerns the target T4, human MCP-2. Kind of experiment: KinExA kinetic exclusion assay, in solution. As for the experimental part:
as §3, §4
B1 returned a Kd of 0.018 nM.

Take B9: the Kd was found to be 0.43 nM.

In the next experiment the target is T5, human MCP-1 (human, UniProt P13500 24-99).
T5 construct: also called hMCP-1; huMCP-1
Kind of experiment: KinExA kinetic exclusion assay, in solution. How it is done:
as §3, §4
Molecule B1 came in with a Kd below 0.0004 nM.

For B9, the Kd worked out at 0.011 nM.

The molecule B7 gave a Kd below 0.0007 nM.

In turn, B8 yielded a Kd of 0.013 nM.

A further experiment addresses human Gcp-2 (human, UniProt P80162 38-114, limits assumed). Kind of experiment: ELISA, hybridoma supernatant. How it is done:
(§5) MaxiSorp 384 well plates were coated with 15-20 μl antigen in PBS. Recombinant purified human antigens included: MCP-1, MCP-2, MCP-3, MCP-4, IL-8, eotaxin, fractalkine, Gcp-2, DC-CK (Gcp-2 and DC-CK are also chemokines). Plates were incubated with antigen for 2 hours at 37° C. or overnight at 4° C. Non-specific sites were blocked with 80 μl/well of 1% BSA/PBS for 1 hour at room temperature. Plates were washed and 15 μl of hybridoma supernatant was added to each well and incubated for 1 hour at room temperature. Plates were washed and wells were incubated with 20 μl/well of a 1:25 000 dilution of goat anti-mouse IgG peroxidase conjugate (Jackson Catalog Number 515-036-003). Plates were incubated for 1 hour at room temperature, washed, and 20 μl/well of substrate (TMB, tetramethylbenzidine, Jackson, Catalog Number 515-036-062) was added. Reaction was allowed to proceed and stopped by addition of 20 μl/well of 2M H₂SO₄. Reactive clones were picked for further analysis. Isotyping of hybridoma supernatants was performed by antigen-dependent ELISA. Briefly, wells were coated with 50 μl of human MCP-1 (5 μg/ml) for 1 hour at 37° C. Wells were washed 4 times and blocked with PBS/1% BSA. Isotyping of hybridoma supernatants was then performed using a mouse immunoglobulin screening/isotyping kit (Zymed Laboratories, San Francisco, Calif.) as recommended by the manufacturer.
As to B1, the binding result was “no binding”.

As for B2, the binding result is reported as “no binding”.

For the molecule B3, the binding result is on record as “no binding”.

Turning to B4, the binding result is recorded as “no binding”.

As for B5, the binding result is listed as “no binding”.

In the case of B6, the binding result is “no binding”.

As to B7, the binding result is reported as “no binding”.

A further experiment addresses T6, human fractalkine (human, UniProt P78423 25-100, limits assumed).
T6 sequence (looked up): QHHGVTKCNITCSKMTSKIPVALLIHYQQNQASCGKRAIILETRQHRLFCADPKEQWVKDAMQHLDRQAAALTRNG
Nature of the experiment: ELISA, hybridoma supernatant. How it is done:
as §5
Consider B1, for which the binding result is on record as “no binding”.

Turning to B2, the binding result is “no binding”.

For the molecule B3, the binding result is “no binding”.

With B4, the binding result is recorded as “no binding”.

Regarding B5, the binding result is “no binding”.

As to B6, the binding result is “no binding”.

Take B7: the binding result was “no binding”.

The target in the next experiment is T7, human DC-CK (human, UniProt P55774 21-89, limits assumed).
T7 construct: reading it as DC-CK1/CCL18 is mine
T7 sequence (looked up): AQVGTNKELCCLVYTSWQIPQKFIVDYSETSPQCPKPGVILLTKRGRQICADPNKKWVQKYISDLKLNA
Nature of the experiment: ELISA, hybridoma supernatant. How it is done:
as §5
For B1, the binding result is “no binding”.

Regarding B2, the binding result is recorded as “no binding”.

For the molecule B3, the binding result is listed as “no binding”.

Regarding B4, the binding result is listed as “no binding”.

For the molecule B5, the binding result is “no binding”.

Take B6: the binding result was “no binding”.

On to B7, for which the binding result was “no binding”.

The target in another experiment is T4, human MCP-2. Nature of the experiment: KinExA kinetic exclusion assay, in solution; whole mAb (bivalent IgG1), not Fab. As for the experimental part: as §3, §4
B7 displayed a Kd of 0.0012 nM.

A further experiment concerns the target T8, rhesus MCP-1 (rhesus, UniProt P61275 24-99).
T8 construct: also called primate MCP-1
Nature of the experiment: ELISA, 1 ug/ml synthetic chemokine coated, mAb 10 ug/ml. As for the experimental part: as §5
(§6) In addition, both 1A1 and 11K2 mAbs recognize primate MCP-1. Plates were coated with 1 μg/ml of chemically synthesized chemokines (corresponding to the cynomolgus and rhesus MCP-1 sequences) and probed with 10 μg/ml of monoclonal antibodies, including MOPC21, 1l K2, 3N10, 1A1, D9, and 1M11, as described above.
For the molecule B1, the binding result is “binds”.

For the molecule B7, the binding result is “binds”.

For a further experiment, the target named is T9, cynomolgus MCP-1 (cynomolgus, UniProt P61274 24-99).
T9 construct: also called primate MCP-1
The experiment is described as above. How it is done:
as §5, §6
Regarding B1, the binding result is listed as “binds”.

In the case of B7, the binding result was “binds”.
